Test results: the supplement of paper PMC10065799, “High-throughput profiling of sequence recognition by tyrosine kinases and SH2 domains using bacterial peptide display” (eLife, 2023)

Key:
[1] = target: c-Src SH2; experiment: SH2 binding enrichment of the phosphorylated peptide, bacterial display (enrichment ratio); higher = better substrate or ligand; peptides without Tyr show the background
[2] = target: SHP2-C SH2; experiment: as above
[3] = target: Grb2 SH2 (UniProt P62993); experiment: as above
[4] = target: FGFR3 (UniProt P22607); experiment: phosphorylation enrichment, bacterial display (enrichment ratio); higher = better substrate or ligand; peptides without Tyr show the background
[5] = test system: c-Abl (mouse); experiment: as above
[6] = target: FGFR1 (UniProt P11362); experiment: as above
[7] = target: EPHB1 (UniProt P54762); experiment: as above
[8] = test system: c-Src; experiment: as above
[9] = test system: Fer (mouse); experiment: as above
[10] = test system: AncSZ; experiment: as above
[11] = target: MERTK (UniProt Q12866); experiment: as above
[12] = target: Fyn (UniProt P06241); experiment: as above
[13] = target: EPHB2 (UniProt P29323); experiment: as above
[14] = target: Hck (UniProt P08631); experiment: as above
[15] = target: Jak2 (UniProt O60674); experiment: as above
[16] = target: Fes (UniProt P07332); experiment: as above
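Throughout, for SH2 binding enrichment of the phosphorylated peptide, bacterial display: peptide library displayed on the E. coli surface as eCPX fusions, selected cells deep-sequenced, score is each peptide's frequency after selection divided by its frequency in the input.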
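Throughout, for phosphorylation enrichment, bacterial display: 11-residue human phosphosite peptides and single-mutation variants displayed on the E. coli surface, counted by deep sequencing, each peptide's frequency after selection divided by its frequency in the unselected input library; frequency after pTyr selection over input frequency; kinase dosed for 20-30% of maximal phosphorylation in three min.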

Sequence of MERTK (Q12866 whole entry, looked up): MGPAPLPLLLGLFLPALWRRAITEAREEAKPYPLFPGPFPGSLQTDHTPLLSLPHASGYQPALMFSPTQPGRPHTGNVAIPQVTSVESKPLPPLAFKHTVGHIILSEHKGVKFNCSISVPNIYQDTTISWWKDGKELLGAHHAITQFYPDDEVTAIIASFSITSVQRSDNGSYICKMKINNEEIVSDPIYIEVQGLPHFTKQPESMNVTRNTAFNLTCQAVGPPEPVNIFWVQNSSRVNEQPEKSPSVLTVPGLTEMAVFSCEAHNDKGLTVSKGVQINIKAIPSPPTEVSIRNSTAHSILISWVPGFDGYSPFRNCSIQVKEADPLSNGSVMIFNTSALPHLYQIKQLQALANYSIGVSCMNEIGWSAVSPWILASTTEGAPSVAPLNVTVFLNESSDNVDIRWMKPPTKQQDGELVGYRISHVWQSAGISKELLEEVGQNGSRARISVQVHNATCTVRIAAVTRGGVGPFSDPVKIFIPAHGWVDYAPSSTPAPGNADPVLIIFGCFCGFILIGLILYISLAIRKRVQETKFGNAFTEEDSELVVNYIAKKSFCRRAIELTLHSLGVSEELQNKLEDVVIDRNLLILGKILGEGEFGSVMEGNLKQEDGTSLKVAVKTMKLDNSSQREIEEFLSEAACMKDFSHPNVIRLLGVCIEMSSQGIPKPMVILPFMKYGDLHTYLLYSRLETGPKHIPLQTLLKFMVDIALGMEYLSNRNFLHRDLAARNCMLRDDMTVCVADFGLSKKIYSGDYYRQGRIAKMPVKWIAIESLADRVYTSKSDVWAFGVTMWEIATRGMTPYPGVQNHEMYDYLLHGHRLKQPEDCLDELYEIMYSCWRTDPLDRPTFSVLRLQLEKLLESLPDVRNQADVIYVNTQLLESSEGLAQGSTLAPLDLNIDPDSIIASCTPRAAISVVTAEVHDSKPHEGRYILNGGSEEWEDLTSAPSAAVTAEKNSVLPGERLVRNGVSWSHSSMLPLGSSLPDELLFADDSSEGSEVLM
Sequence of Fyn (P06241 whole entry, looked up): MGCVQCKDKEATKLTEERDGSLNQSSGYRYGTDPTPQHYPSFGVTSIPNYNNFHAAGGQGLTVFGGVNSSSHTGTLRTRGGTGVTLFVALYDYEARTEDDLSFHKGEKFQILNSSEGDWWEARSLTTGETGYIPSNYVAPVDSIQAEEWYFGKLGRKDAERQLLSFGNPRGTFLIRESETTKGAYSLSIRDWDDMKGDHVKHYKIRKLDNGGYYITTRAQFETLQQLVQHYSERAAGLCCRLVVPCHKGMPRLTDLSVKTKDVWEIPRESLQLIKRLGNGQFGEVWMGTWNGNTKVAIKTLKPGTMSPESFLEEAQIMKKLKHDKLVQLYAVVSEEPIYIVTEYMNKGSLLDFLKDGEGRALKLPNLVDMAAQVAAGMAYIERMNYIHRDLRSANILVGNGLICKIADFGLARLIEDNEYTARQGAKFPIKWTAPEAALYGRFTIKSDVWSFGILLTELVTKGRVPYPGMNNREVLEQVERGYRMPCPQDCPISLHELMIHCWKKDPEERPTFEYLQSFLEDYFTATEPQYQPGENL
Sequence of EPHB2 (P29323 whole entry, looked up): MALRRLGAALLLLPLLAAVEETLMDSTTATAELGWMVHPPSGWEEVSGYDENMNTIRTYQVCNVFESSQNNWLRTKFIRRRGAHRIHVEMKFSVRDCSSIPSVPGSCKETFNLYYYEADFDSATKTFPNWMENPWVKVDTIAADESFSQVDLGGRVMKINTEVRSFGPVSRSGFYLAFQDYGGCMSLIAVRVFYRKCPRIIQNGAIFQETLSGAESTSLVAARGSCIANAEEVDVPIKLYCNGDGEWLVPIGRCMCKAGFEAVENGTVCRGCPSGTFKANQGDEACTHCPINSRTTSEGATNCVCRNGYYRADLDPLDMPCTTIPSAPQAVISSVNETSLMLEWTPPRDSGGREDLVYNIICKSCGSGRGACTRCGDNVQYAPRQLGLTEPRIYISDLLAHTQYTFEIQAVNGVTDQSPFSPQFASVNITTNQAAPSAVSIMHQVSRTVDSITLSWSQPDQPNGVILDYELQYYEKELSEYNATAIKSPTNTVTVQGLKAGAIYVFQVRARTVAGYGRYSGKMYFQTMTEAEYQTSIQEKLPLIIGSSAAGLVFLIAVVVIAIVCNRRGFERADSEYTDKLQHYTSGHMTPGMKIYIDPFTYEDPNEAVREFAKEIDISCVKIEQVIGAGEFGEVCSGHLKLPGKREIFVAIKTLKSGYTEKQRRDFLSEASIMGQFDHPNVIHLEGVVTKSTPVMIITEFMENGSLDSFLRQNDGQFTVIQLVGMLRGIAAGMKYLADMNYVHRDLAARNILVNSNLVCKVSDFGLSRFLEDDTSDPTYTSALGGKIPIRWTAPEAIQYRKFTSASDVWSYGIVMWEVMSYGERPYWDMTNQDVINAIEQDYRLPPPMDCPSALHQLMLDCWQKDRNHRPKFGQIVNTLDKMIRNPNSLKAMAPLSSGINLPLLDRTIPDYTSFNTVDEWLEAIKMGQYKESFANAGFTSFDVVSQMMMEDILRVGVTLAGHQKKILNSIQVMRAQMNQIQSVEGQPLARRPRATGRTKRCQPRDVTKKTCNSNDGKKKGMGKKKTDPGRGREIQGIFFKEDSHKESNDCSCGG
Sequence of Fes (P07332 whole entry, looked up, the tested form may be a part): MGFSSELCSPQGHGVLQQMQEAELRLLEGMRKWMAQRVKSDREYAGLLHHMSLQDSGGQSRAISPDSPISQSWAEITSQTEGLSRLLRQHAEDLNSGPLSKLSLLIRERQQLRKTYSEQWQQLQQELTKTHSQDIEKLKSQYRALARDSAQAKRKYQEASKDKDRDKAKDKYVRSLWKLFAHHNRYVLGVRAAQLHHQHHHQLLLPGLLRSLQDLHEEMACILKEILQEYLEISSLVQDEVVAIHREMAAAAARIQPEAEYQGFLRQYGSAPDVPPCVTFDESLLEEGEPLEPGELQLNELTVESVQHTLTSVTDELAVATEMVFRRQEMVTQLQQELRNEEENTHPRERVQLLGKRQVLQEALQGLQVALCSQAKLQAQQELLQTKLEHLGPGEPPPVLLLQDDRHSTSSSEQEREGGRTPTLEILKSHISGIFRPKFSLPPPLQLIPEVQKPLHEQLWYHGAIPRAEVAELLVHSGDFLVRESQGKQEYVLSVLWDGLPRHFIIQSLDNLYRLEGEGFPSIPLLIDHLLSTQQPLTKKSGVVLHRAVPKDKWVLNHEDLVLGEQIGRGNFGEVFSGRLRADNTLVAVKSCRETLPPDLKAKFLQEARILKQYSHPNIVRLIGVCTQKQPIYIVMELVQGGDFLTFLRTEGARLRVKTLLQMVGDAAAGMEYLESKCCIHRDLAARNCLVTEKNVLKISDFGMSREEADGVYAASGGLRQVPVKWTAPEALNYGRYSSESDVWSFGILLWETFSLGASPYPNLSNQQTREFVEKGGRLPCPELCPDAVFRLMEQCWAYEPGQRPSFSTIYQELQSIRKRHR
Sequence of Hck (P08631 whole entry, looked up): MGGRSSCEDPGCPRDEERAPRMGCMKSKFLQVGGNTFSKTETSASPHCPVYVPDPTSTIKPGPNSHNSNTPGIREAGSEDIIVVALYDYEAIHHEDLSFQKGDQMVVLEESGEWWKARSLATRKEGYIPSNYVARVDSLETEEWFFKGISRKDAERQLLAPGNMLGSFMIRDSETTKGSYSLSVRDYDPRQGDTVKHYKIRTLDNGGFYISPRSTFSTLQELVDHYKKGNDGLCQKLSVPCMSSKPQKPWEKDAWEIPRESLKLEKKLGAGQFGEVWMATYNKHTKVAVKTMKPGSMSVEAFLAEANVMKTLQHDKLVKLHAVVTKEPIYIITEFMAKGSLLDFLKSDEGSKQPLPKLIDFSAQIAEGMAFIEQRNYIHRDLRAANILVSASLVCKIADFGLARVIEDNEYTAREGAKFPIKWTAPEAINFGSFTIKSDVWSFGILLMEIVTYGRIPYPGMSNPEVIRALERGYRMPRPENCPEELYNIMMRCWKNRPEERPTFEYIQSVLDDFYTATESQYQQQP
Sequence of EPHB1 (P54762 whole entry, looked up): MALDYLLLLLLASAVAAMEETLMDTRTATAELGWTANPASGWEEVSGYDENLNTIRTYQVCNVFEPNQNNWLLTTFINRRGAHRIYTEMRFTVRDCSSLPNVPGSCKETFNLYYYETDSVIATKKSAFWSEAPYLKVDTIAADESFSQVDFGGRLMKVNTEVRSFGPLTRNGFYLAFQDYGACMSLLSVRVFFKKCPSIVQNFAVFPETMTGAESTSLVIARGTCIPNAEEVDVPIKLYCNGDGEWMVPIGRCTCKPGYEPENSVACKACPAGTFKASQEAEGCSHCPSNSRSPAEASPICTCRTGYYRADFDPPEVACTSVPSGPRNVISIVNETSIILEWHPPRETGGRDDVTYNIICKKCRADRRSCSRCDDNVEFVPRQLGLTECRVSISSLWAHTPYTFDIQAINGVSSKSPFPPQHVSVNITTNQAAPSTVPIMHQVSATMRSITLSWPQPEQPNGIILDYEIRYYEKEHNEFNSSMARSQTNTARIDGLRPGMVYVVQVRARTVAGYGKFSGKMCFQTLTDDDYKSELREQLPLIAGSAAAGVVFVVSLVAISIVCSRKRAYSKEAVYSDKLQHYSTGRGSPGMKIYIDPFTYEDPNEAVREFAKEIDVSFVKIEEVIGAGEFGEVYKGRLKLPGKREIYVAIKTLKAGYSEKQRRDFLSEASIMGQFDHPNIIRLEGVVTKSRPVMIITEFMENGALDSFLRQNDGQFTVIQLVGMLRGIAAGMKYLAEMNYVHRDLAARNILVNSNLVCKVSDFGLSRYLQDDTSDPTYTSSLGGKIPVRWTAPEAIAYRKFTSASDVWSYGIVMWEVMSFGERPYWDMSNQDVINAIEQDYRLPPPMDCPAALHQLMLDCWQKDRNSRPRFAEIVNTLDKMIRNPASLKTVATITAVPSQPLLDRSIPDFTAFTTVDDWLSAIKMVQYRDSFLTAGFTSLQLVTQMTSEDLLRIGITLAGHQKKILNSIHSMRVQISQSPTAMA

Sequence | SH2 binding enrichment [1] | SH2 binding enrichment [2] | SH2 binding enrichment [3] | phosphorylation enrichment [4] | phosphorylation enrichment [5] | phosphorylation enrichment [6] | phosphorylation enrichment [7] | phosphorylation enrichment [8] | phosphorylation enrichment [9] | phosphorylation enrichment [10] | phosphorylation enrichment [11] | phosphorylation enrichment [12] | phosphorylation enrichment [13] | phosphorylation enrichment [14] | phosphorylation enrichment [15] | phosphorylation enrichment [16]
AGQKDYDRLRP [RAC3_Y64_E62K] | 0.63 | 0.688 | 0.953 | 0.572 | 0.627 | 0.462 | 0.501 | 0.36 | 0.787 | 0.662 | 0.358 | 0.52 | 0.543 | 0.47 | 0.546 | 0.761
AGRSGYDNREI [BCL2_Y9_T7S] | 0.494 | 0.757 | 0.731 | 0.49 | 0.551 | 0.366 | 0.386 | 0.394 | 0.32 | 0.574 | 0.366 | 0.426 | 0.409 | 0.441 | 0.52 | 0.635
AGTILYHAHLD [ASS1_Y291] | 0.477 | 0.74 | 0.949 | 0.497 | 0.509 | 0.535 | 0.526 | 0.451 | 0.398 | 0.591 | 0.561 | 0.479 | 0.78 | 0.523 | 0.495 | 0.703
AHAGEYGAVAL [HBA1_Y25_E28V] | 0.486 | 0.6 | 0.88 | 0.509 | 0.517 | 0.421 | 0.346 | 2.95 | 0.672 | 0.598 | 0.389 | 5.54 | 0.582 | 3.27 | 0.511 | 0.594
AHPIIYEIIEA [PYKtide_E_2014] | 0.872 | 1.07 | 1.18 | 1.59 | 2.94 | 2.02 | 22.3 | 8.32 | 16.2 | 1.93 | 11.6 | 9.6 | 20.4 | 9.98 | 1.16 | 5.96
AIDVGYRLIDC [AKR1B1_Y40_H42L] | 2.02 | 0.7 | 0.993 | 0.594 | 0.861 | 0.514 | 0.456 | 0.512 | 0.424 | 0.874 | 0.39 | 0.428 | 0.45 | 0.417 | 0.792 | 1.2
ALAHKCHGGGG [HBB_Y146_Y146C] | 0.538 | 0.761 | 0.829 | 0.546 | 0.758 | 0.428 | 0.473 | 0.563 | 0.458 | 0.673 | 0.469 | 0.414 | 0.397 | 0.45 | 0.862 | 0.755
ALAPKYHGGGG [HBB_Y146_H144P] | 0.341 | 0.411 | 0.607 | 0.248 | 0.423 | 0.327 | 0.315 | 0.389 | 0.332 | 0.314 | 0.386 | 0.31 | 0.356 | 0.348 | 0.423 | 0.506
ALKKPYGVLFK [RPF2_Y59_YF] | 1.76 | 2.29 | 2.15 | 0.518 | 0.712 | 0.404 | 0.469 | 0.777 | 0.403 | 0.765 | 0.528 | 0.562 | 0.502 | 0.632 | 0.73 | 0.722
ALMGPYHGQVL [HADHA_Y343_L342P] | 0.433 | 1.03 | 0.77 | 0.436 | 0.61 | 0.411 | 0.366 | 0.46 | 0.336 | 0.544 | 0.335 | 0.336 | 0.41 | 0.384 | 0.485 | 0.537
ALPGEYIPTVF [RAC1_Y32_F28L] | 0.509 | 0.643 | 0.697 | 0.697 | 0.7 | 0.573 | 0.585 | 0.514 | 0.46 | 1.1 | 0.426 | 0.612 | 0.595 | 0.492 | 1.12 | 1.16
ALWYIYLHTRS [ENG_Y614_S615L] | 0.521 | 0.607 | 0.641 | 0.821 | 0.733 | 0.62 | 0.542 | 0.331 | 0.514 | 1.1 | 0.352 | 0.432 | 0.476 | 0.384 | 1.09 | 1.39
ANFAKYGNPNE [BCHE_Y505] | 0.382 | 0.6 | 0.784 | 0.426 | 0.357 | 0.462 | 0.384 | 0.461 | 0.406 | 0.561 | 0.361 | 0.307 | 0.331 | 0.362 | 0.372 | 0.549
MSLRSYGSWEG [APC_Y96_R99W] | 0.282 | 0.412 | 0.45 | 0.671 | 0.273 | 0.034 | 0.581 | 0.705 | – | 1.32 | 0.047 | 0.633 | 0.338 | 0.459 | 0.793 | 0.881
RETLTYAQAQG [BRD1_Y33_R38G] | – | – | – | 0.149 | 0.418 | 0.916 | – | 0.768 | 0.383 | 0.579 | 0.391 | 0.551 | 0.934 | 0.982 | – | 0.448
